From publication PMC5889391, “Lipid binding promotes the open conformation and tumor-suppressive activity of neurofibromin 2” (Nature Communications, 2018)

Key:
[1] = target: neurofibromin 2 tail tail (Homo sapiens) (UniProt P35240); settings: cited from earlier work
[2] = target: T1, neurofibromin 2 (full-length, GST-tagged) (Homo sapiens, UniProt P35240, A585W/R588K); experiment: microscale thermophoresis; assay type: binding; settings: 20 mM Tris pH 7.5, 300 mM NaCl, 0.01% Tween-20, room temperature; protein labelled with maleimide NT-647
T1 construct: gene NF2; full-length, residues 1-595, N-terminal GST tag kept (pGEX-6P-1), E. coli BL21(DE3) Rosetta2
T1 sequence (P35240 1-595 A585W/R588K): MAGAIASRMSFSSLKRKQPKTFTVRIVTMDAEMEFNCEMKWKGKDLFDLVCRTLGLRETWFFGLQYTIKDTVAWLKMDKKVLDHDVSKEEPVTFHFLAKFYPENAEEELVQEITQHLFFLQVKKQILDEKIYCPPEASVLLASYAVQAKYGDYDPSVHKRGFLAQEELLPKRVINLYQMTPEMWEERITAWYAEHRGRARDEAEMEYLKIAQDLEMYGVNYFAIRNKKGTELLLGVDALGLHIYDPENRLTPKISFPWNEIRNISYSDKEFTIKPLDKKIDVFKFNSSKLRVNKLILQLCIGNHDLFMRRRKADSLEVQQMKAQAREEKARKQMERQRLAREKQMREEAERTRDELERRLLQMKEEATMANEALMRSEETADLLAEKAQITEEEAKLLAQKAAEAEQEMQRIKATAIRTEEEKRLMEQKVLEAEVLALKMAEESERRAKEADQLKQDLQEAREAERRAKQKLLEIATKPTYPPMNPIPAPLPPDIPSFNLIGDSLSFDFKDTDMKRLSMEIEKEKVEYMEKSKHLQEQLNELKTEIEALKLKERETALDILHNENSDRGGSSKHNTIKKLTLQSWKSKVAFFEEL

[3] = target: T2, N terminally GST-tagged full-length neurofibromin 2 lipid binding deficient mutant (T59V, W60E, R309Q, R310Q) (human, UniProt P35240 1-595, T59V | W60E | R309Q | R310Q, labeled with NT-647 red dye (maleimide conjugated cysteine reactive or NHS conjugated lysine reactive)); experiment: MST; unlabeled LATS1 69-100 (2 mM) titrated into 5 uM NT-647-labeled GST-neurofibromin 2; 20 mM Tris pH 7.5, 300 mM NaCl, 0.01% Tween-20; room temperature; settings: both partners purified
T2 construct: neurofibromin 2 (merlin), human, full length, residues 1-595, with four point mutations; Cloned into pGEX-6P-1; also called LBD; source: E. coli BL21(DE3) Rosetta2, purified (GST column); not shown: GST, N-terminal, kept
T2 sequence (looked up): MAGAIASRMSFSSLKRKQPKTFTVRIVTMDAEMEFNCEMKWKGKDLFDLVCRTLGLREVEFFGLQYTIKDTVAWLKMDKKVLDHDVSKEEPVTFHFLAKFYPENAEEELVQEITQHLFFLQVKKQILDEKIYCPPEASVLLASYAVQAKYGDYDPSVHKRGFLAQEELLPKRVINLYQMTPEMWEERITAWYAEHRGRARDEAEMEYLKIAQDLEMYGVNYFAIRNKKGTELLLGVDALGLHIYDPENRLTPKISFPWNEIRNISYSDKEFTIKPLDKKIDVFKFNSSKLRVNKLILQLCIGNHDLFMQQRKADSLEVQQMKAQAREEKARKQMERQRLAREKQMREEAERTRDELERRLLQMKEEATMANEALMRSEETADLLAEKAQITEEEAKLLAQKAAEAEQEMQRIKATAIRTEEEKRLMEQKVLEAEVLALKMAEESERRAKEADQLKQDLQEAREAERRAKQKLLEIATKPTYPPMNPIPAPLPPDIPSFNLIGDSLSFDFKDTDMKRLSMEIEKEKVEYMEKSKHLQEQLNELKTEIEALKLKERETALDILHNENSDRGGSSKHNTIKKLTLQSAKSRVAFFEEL

[4] = target: T3, N terminally GST-tagged full-length neurofibromin 2, wild type (human, UniProt P35240 1-595, labeled with NT-647 red dye (maleimide conjugated cysteine reactive or NHS conjugated lysine reactive)); experiment: as above; settings: both partners purified
T3 construct: neurofibromin 2 (merlin), human, full length, residues 1-595; also called NF2; merlin; source: E. coli BL21(DE3) Rosetta2, purified (GST column); not shown: GST, N-terminal, kept
T3 sequence (looked up): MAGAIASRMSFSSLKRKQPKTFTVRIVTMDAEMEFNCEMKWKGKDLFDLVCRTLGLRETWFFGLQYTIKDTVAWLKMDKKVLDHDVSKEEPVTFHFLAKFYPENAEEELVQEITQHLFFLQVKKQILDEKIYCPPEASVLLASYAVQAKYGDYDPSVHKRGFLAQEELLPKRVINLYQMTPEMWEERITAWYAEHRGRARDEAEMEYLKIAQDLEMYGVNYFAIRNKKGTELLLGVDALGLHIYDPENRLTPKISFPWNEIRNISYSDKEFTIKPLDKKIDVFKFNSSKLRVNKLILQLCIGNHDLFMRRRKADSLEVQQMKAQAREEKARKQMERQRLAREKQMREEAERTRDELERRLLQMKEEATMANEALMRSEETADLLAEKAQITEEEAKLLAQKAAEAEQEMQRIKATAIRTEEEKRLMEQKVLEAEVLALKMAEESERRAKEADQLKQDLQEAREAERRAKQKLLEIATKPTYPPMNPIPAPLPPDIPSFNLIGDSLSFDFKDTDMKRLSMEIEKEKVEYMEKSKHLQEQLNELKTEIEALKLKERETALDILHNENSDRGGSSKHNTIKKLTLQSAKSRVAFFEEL

[5] = target: T3, N terminally GST-tagged full-length …; experiment: MST; as a1, but LATS1 69-100 titrated into the neurofibromin 2/PIP2 complex (in the presence of PIP2); settings: both partners purified

neurofibromin 2 head head (from UniProt P35240)
Kd [1]: 3 µM

CCCCCCCC(=O)OC[C@H](COP(=O)(O)O[C@@H]1[C@H](O)[C@H](O)[C@@H](OP(=O)(O)O)[C@H](OP(=O)(O)O)[C@H]1O)OC(=O)CCCCCCC [PIP2diC8]
microscale thermophoresis [2]: No binding was observed for the artificially closed A585W-R588K (AR) mutants to h PIP2

B1: LATS1 (residues 69-100) (domain or fragment, UniProt O95835 69-100, looked up)
chain: PKFGTHHKALQEIRNSLLPFANETNSSRSTSE
notes: Hippo pathway kinase LATS1, residues 69-100; it was unlabeled; also called LATS1 kinase; LAST1 residues 69-100
Kd [3]: 176 ± 34.5 µM | Kd [4]: 39.3 ± 4.25 µM | Kd [5]: 3.77 ± 0.72 µM
